{"source": "paper PMC12510224", "molecular_target": "MDM2(S395D) S395D (UniProt Q00987)", "sequence (Q00987 whole entry S395D)": "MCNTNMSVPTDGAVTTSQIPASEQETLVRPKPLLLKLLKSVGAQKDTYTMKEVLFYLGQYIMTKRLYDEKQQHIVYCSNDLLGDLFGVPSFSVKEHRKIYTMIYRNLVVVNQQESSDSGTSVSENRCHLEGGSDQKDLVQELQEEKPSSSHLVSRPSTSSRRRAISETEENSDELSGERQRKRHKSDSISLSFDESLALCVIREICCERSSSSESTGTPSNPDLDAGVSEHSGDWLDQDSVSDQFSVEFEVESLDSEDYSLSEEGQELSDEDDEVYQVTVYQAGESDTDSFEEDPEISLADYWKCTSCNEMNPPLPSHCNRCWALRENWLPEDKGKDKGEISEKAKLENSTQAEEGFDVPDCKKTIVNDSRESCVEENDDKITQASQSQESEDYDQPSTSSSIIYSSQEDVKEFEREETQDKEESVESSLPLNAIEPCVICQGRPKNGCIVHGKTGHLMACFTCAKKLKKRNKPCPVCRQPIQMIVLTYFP", "experiment": "RNA co-IP (anti-MDM2 4B2) with RT-qPCR", "details": "RNA co-IP: 50 mM Tris pH 7.5, 150 mM NaCl, 0.01 mM ZnSO4, 2 mM MgCl2, 0.02 mg/mL yeast tRNA, 0.2 mg/mL BSA, room temperature, pull-down overnight at 4 C", "data": [{"sequence": "AUGGAGGAGCCGCAGUCAGAUCCUAGCGUCGAGCCCCCUCUGAGUCAGGAAACAUUUUCAGACCUAUGGAAACUACUUCCUGAAAACAACGUUCUGUCCCCCUUGCCGUCCCAAGCAAUGGAUGAUUUGAUGCUGUCCCCGGACGAUAUUGAACAAUGGUUCACUGAAGACCCAGGUCCAGAUGAAGCUCCCAGAAUGCCAGAGGCUGCUCCCCCCGUGGCCCCUGCACCAGCAGCUCCU [p53 mRNA +1 to +240 WT]", "values": [{"measurement": "binding signal (fold increase over no BOX-I oligo)", "value": 60}]}]}
